Experimental findings from publication PMC8201801 (Proceedings of the National Academy of Sciences of the …, 2021) are described below.

For the assay, the target named is T1, Canine parvovirus (CPV) capsid (Canine parvovirus type 2 (CPV-2), …).
T1 chain: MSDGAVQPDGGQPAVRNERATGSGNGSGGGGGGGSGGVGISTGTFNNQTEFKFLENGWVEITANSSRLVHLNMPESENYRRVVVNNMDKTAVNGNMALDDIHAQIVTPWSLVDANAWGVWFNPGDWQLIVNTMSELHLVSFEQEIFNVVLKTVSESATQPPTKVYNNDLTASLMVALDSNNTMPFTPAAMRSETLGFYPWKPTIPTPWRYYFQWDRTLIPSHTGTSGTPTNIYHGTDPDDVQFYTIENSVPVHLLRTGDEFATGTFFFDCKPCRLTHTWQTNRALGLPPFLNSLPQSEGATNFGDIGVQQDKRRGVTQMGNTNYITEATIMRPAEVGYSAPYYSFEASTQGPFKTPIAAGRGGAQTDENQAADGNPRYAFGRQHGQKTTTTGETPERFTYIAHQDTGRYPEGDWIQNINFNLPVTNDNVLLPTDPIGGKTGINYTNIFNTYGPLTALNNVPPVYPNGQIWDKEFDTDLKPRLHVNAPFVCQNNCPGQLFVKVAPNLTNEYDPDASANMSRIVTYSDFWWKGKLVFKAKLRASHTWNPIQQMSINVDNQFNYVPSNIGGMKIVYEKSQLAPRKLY
In words: cryo-EM structure.

B1: Fab of MAb 14 (Fab 14) (Fab, V domains shown)
VH: AVHLQGTELVKPGASAGVKLSCKASGYTFTNYDMNWVRQRPEQGLEWIGWIFPGDGSTRYNEKFKGKATLTTDKSSSTAYQLNRLTSEDSAVYFCARRGSHGSYSFAYWGQGTLVTVSG
VL: DIVMTQSHKFMSTSVGDRVSITCKASQDVNTALAWYQQIPGQSPKLLIYSASNRYTGVPDRFTASGSGTDFTFTISSVQAEDLALYYCQQHYTTPWTFGGGTKLEIK
The term stoichiometry N denotes the number of molecules, sites or subunits per partner or assembly. Turning to B1, the “stoichiometry N” value was around 60 Fab per capsid.
